{"source": "patent US20070274915", "proteins": {"B1": {"name": "E6AP (purified, full-length) (protein)", "chain": "MKRAAAKHLIERYYHQLTEGCGNEACTNEFCASCPTFLRMDNNAAAIKALELYKINAKLCDPHPSKKGASSAYLENSKGAPNNSCSEIKMNKKGARIDFKDVTYLTEEKVYEILELCREREDYSPLIRVIGRVFSSAEALVQSFRKVKQHTKEELKSLQAKDEDKDEDEKEKAACSAAAMEEDSEASSSRIGDSSQGDNNLQKLGPDDVSVDIDAIRRVYTRLLSNEKIETAFLNALVYLSPNVECDLTYHNVYSRDPNYLNLFIIVMENRNLHSPEYLEMALPLFCKAMSKLPLAAQGKLIRLWSKYNADQIRRMMETFQQLITYKVISNEFNSRNLVNDDDAIVAASKCLKMVYYANVVGGEVDTNHNEEDDEEPIPESSELTLQELLGEERRNKKGPRVDPLETELGVKTLDCRKPLIPFEEFINEPLNEVLEMDKDYTFFKVETENKFSFMTCPFILNAVTKNLGLYYDNRIRMYSERRITVLYSLVQGQQLNPYLRLKVRRDHIIDDALVRLEMIAMENPADLKKQLYVEFEGEQGVDEGGVSKEFFQLVVEEIFNPDIGMFTYDESTKLFWFNPSSFETEGQFTLIGIVLGLAIYNNCILDVHFPMVVYRKLMGKKGTFRDLGDSHPVLYQSLKDLLEYEGNVEDDMMITFQISQTDLFGNPMMYDLKENGDKIPITNENRKEFVNLYSDYILNKSVEKQFKAFRRGFHMVTNESPLKYLFRPEEIELLICGSRNLDFQALEETTEYDGGYTRDSVLIREFWEIVHSFTDEQKRLFLQFTTGTDRAPVGGLGKLKMIIAKNGPDTERLPTSHTCFNVLLLPEYSSKEKLKERLLKAITYAKGFGML"}, "B2": {"name": "myc-tagged Nedd4 isoform (accession number KIAA0093) (protein)", "chain": "MATCAVEVFGLLEDEENSRIVRVRVIAGIGLAKKDILGASDPYVRVTLYDPMNGVLTSVQTKTIKKSLNPKWNEEILFRVHPQQHRLLFEVFDENRLTRDDFLGQVDVPLYPLPTENPRLERPYTFKDFVLHPRSHKSRVKGYLRLKMTYLPKTSGSEDDNAEQAEELEPGWVVLDQPDAACHLQQQQEPSPLPPGWEERQDILGRTYYVNHESRRTQWKRPTPQDNLTDAENGNIQLQAQRAFTTRRQISEETESVDNRESSENWEIIREDEATMYSNQAFPSPPPSSNLDVPTHLAEELNARLTIFGNSAVSQPASSSNHSSRRGSLQAYTFEEQPTLPVLLPTSSGLPPGWEEKQDERGRSYYVDHNSRTTTWTKPTVQATVETSQLTSSQSSAGPQSQASTSDSGQQVTQPSEIEQGFLPKGWEVRHAPNGRPFFIDHNTKTTTWEDPRLKIPAHLRGKTSLDTSNDLGPLPPGWEERTHTDGRIFYINHNIKRTQWEDPRLENVAITGPAVPYSRDYKRKYEFFRRKLKKQNDIPNKFEMKLRRATVLEDSYRRIMGVKRADFLKARLWIEFDGEKGLDYGGVAREWFFLISKEMFNPYYGLFEYSATDNYTLQINPNSGLCNEDHLSYFKFIGRVAGMAVYHGKLLDGFFIRPFYKMMLHKPITLHDMESVDSEYYNSLRWILENDPTELDLRFIIDEELFGQTHQHELKNGGSEIVVTNKNKKEYIYLVIQWRFVNRIQKQMAAFKEGFFELIPQDLIKIFDENELELLMCGLGDVDVNDWREHTKYKNGYSANHQVIQWFWKAVLMMDSEKRIRLLQFVTGTSRVPMNGFAELYGSNGPQSFTVEQWGTPEKLPRAHTCFNRLDLPPYESFEELWDKLQMAIENTQGFDGVD"}, "B3": {"name": "catalytically inactive Nedd4 protein, bearing an alanine substitution at the active cysteine of the HECT domain (protein)", "chain": "B2 chain"}}, "key": {"[1]": {"molecular_target": "T1, bacterially-expressed HHR23A substrate, P54725", "T1 chain": "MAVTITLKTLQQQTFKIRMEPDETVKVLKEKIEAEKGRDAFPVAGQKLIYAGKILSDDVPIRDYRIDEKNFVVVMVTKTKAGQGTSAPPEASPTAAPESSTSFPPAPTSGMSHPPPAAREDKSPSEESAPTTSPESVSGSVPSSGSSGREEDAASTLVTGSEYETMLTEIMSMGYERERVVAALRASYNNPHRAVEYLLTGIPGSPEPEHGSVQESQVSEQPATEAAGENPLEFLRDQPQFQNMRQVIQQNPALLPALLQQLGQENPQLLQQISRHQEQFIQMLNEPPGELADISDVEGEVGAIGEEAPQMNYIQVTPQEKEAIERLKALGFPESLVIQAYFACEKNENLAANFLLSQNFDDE"}}, "data": [{"protein": "B1", "values": [{"measurement": "trans-ubiquitination of HHR23A (in vitro reaction with E1, E2 UbcH7, ubiquitin and ATP; SDS-PAGE, anti-HHR23A immunoblot)", "setting": "[1]", "value": "time-dependent increase in the amount of ubiquitin-conjugated HHR23A substrate"}]}, {"protein": "B2", "values": [{"measurement": "ionomycin-dependent degradation of PLC-γ1 (HEK 293 transfection, immunoblot)", "setting": "AU-tagged PLC-γ1", "value": "Itch and Nedd4 both facilitated the ionomycin-dependent degradation of PLC-γ1"}]}, {"protein": "B3", "values": [{"measurement": "ionomycin-dependent degradation of PLC-γ1 (HEK 293 transfection, immunoblot)", "setting": "AU-tagged PLC-γ1", "value": "did not promote this decrease (FIG. 17D; lanes 5, 6), but prevented the small but significant decrease in PLC-γ1 levels observed in ionomycin-treated cells"}]}]}
